Key:
[1] = molecular target: Neuronal calcium sensor-1 (NCS-1), recombinant, myristoylated, reduced monomer (UniProt P62166); experiment: SDS-PAGE under non-reducing conditions (disulfide dimer); preparation of dNCS-1: NCS-1 2 mg/mL dialysed against 20 mM Tris-HCl pH 8.0, 150 mM NaCl, 1 mM H2O2, 4 °C, 3 h
[2] = molecular target: Chimera GRK1^N-C, fusion protein containing regulatory domains of GRK1 (GRK1 1-191,512-557) (UniProt P28327); experiment: SPR; GRK1^N-C immobilised by amine coupling on a ProteOn GLH chip (up to 12,000 RU); analyte NCS-1 or dNCS-1 0.5 to 20 μM; 25 °C; 10 mM HEPES pH 7.4, 150 mM NaCl, 1 mM CaCl2, 0.05% Tween 20; global fits by the heterogeneous ligand model (both) or the bivalent analyte model (dNCS-1)
[3] = molecular target: Neuronal calcium sensor-1 (NCS-1), recombinant, myristoylated, reduced monomer (UniProt P62166); experiment: SEC; analytical gel filtration on Superdex 75 10/300 GL, 20 mM Tris-HCl pH 8.0, 150 mM NaCl, 1 mM DTT (non-oxidizing), with 0.1 mM ZnCl2 or 1 mM EGTA
[4] = molecular target: Neuronal calcium sensor-1 (NCS-1), recombinant, myristoylated, reduced monomer (UniProt P62166); experiment: redox equilibrium with GSSG/GSH, SDS-PAGE under non-reducing conditions; 1.5 µM dNCS-1, 50 mM HEPES pH 7.4, 100 mM KCl, 0.1 mM CaCl2 or 1 mM MgCl2, 0.1 mM GSSG and 8.8 µM–72.4 mM GSH, anaerobic, 35 °C, 62 h; densitometry
[5] = molecular target: Neuronal calcium sensor-1 (NCS-1), recombinant, myristoylated, reduced monomer (UniProt P62166); experiment: SDS-PAGE under non-reducing conditions (disulfide dimer); 20 μM reduced NCS-1 with 0.1–1000 μM H2O2, 20 mM Tris-HCl pH 8.0, 150 mM NaCl, with 1 mM MgCl2, 1 mM CaCl2, 0.1 mM ZnCl2 or their combinations (1% SDS in controls), 37 °C, 30 min; densitometry
[6] = molecular target: NCS-1 in HEK293 cells transfected with NCS-1-pCI-neo (UniProt P62166); experiment: Western blotting of cell lysates under non-reducing conditions (disulfide dimer); HEK293 cells transfected with NCS-1, 10 mM H2O2 for 30 min or longer, with or without Ca2+/ionomycin, EGTA, or Zn2+ with chloroquine; lysis with 10 mM iodoacetamide; dimer fraction by densitometry

Chain of UniProt P28327 (P28327 other isoform, or with tags, fused parts or gaps mutant): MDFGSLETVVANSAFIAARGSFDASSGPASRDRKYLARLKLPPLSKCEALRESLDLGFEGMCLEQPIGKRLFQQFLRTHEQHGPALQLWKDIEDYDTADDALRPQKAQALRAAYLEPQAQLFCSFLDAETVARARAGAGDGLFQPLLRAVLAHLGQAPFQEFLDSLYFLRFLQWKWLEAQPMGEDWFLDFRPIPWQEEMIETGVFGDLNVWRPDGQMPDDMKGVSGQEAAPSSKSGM

Neuronal calcium sensor-1 (NCS-1), recombinant, myristoylated, reduced monomer (from UniProt P62166 1-190) (natural protein)
dNCS-1 in the dialysis mixture (1 mM H2O2) [1]: 80%
KD 1 (heterogeneous ligand model) [2]: 590 nM
KD 2 (heterogeneous ligand model) [2]: 2700 nM
koff 1 (heterogeneous ligand model) [2]: 0.00016 s⁻¹
koff 2 (heterogeneous ligand model) [2]: 0.0044 s⁻¹
kon 1 (heterogeneous ligand model) [2]: 267 M⁻¹ s⁻¹
kon 2 (heterogeneous ligand model) [2]: 1910 M⁻¹ s⁻¹
stoichiometry N [3]: 2
dNCS-1 of total NCS-1 (Ca2+, Eh GSSG/GSH ~ −220 mV) [4]: 5 to 10%
dimer content (Zn2+-bound NCS-1, H2O2) [5]: 75%
dimer fraction of total protein (the forms of Figure 4B, H2O2) [5]: < 30%
stoichiometry N [5]: 2

NCS-1 in HEK293 cells transfected with NCS-1-pCI-neo (from UniProt P62166 1-190) (natural protein)
dimer content (prolonged incubation with Zn2+/H2O2) [6]: 25 to 30%
fraction of dNCS-1 of total protein (H2O2 after Zn2+ with chloroquine) [6]: 9%
fraction of the dimer of total NCS-1 (10 mM H2O2, 30 min) [6]: 4 to 5%
stoichiometry N [6]: 2

From article PMC8623652
